Test results taken from patent US20240270821A1, “GIP/GLP1/GCG TRI-RECEPTOR AGONISTS AND USES THEREOF” (priority 2023, published 2024).

T1: human GIP receptor (human) (UniProt P48546)
T1 sequence (looked up): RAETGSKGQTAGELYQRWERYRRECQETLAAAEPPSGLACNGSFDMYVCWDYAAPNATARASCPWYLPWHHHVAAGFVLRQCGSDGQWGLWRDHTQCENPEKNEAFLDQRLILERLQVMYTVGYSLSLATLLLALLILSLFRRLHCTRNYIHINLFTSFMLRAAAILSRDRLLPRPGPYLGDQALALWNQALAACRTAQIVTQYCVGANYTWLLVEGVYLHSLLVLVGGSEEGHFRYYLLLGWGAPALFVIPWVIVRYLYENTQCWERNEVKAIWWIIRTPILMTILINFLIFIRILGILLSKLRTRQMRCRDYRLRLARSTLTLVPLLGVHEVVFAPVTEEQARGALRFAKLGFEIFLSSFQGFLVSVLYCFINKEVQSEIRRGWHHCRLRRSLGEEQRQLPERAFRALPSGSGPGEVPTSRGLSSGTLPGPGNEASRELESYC


Columns and labels:
Assay in all cases: cell-based or functional assay
[1] = target: human glucagon receptor (human) (UniProt P47871)
human glucagon receptor (human), sequence (P47871 26-477): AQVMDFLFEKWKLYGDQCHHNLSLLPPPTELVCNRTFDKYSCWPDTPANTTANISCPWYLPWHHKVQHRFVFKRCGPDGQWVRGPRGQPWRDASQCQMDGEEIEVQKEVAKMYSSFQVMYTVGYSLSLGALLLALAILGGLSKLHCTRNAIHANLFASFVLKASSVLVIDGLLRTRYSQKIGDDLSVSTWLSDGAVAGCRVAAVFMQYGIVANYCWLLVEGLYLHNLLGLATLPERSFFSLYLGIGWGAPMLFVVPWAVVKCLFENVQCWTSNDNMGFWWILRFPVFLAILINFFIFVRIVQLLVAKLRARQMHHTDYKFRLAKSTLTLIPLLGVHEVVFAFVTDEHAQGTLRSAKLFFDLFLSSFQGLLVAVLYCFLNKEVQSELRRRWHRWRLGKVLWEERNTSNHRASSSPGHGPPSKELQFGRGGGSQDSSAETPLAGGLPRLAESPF

hGLP-1R = hGLP-1R (Homo sapiens, UniProt P43220)
hGLP-1R, sequence (P43220 24-463): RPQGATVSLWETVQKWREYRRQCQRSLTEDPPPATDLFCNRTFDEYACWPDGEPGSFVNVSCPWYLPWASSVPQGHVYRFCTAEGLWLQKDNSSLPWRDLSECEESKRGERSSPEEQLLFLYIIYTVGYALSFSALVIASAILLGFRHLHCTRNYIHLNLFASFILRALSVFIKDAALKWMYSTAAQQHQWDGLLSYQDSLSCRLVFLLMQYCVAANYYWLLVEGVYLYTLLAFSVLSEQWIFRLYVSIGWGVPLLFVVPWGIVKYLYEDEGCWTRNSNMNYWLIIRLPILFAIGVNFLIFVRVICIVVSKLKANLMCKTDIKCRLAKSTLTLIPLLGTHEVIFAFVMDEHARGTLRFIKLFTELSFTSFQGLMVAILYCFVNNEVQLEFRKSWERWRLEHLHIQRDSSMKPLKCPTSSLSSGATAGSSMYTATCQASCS

[2] = target: T1, human GIP receptor (human)

Binder | cAMP Rel EC50 (1% HSA) [1] [nM] | cAMP Rel EC50 (1% HSA) (hGLP-1R) [nM] | cAMP Rel EC50 (1% HSA) [2] [nM] | cAMP Rel EC50, nM (1% HSA) [1] [nM] | cAMP Rel EC50, nM (1% HSA) (hGLP-1R) [nM] | cAMP Rel EC50, nM (1% HSA) [2] [nM] | Relative cAMP EC50 [1] [nM] | Relative cAMP EC50 (hGLP-1R) [nM] | Relative cAMP EC50 [2] [nM]
YXQGTFTSDXSQXLDKKAQXAFIEYLIEXGPSSGAPPPSGSEE (acylated lysine γGlu-C18 diacid; non-natural residues; C-terminal amide; synthetic construct; SITE 2: note = 2-Aminoisobutyric Acid; SITE 10: note = 3-(4-Pyridyl)-L-alanine; SITE 13: note = alpha-methyl-leucine; SITE 17: note = Lysine is chemically modified through conjugation of the epsilon-amino group of the Lysine side chain with D-Glutamic acid-(gamma-Glu)-CO-(CH2)16) [Example 928] | 1090 | 604 | 15.1 | – | – | – | – | – | –
YXQGTFTSDXSQXLDKKAQXAFIEXLIEGGPSSGAPPPSGSEE (non-natural residues; Lys acylated C18 diacid; C-terminal amide; synthetic construct; SITE 2: note = 2-Aminoisobutyric Acid; SITE 10: note = 3-(4-Pyridyl)-L-alanine; SITE 13: note = alpha-methyl-leucine; SITE 17: note = Lysine is chemically modified through conjugation of the epsilon-amino group of the Lysine side chain with (2-[2-(2-Amino-ethoxy)-ethoxy]-acetyl)) [Example 954] | – | – | – | 450 | 357 | 35.3 | – | – | –
YXQGTFTSDXSQXLDKKAQXAFIEYLIEXGPSSGAPPPSGSEE (acylated Lys e-γGlu-e-C18 diacid; non-natural residues; C-terminal amide; synthetic construct; SITE 2: note = 2-Aminoisobutyric Acid; SITE 10: note = 3-(4-Pyridyl)-L-alanine; SITE 13: note = alpha-methyl-leucine; SITE 17: note = Lysine is chemically modified through conjugation of the epsilon-amino group of the Lysine side chain with D-Glutamic acid-(gamma-Glu)-D-Glutamic) [Example 931] | 2300 | 878 | 20.8 | – | – | – | – | – | –
YXQGTFTSDXSRXLDKKAQXAFIEXLIEGGPSSGAPPPSGSEE (acylated lysine AEEA-γGlu-C18 diacid; non-natural residues; C-terminal amide; synthetic construct; SITE 2: note = 2-Aminoisobutyric Acid; SITE 10: note = 3-(4-Pyridyl)-L-alanine; SITE 13: note = alpha-methyl-leucine; SITE 17: note = Lysine is chemically modified through conjugation of the epsilon-amino group of the Lysine side chain with (2-[2-(2-Amino-ethoxy)-ethoxy]-acetyl)) [Example 956] | – | – | – | 406 | 643 | 32.1 | – | – | –
YXQGTFTSDXSXXLDKKAQXAFIEXLIEGGPSSGAPPPSGSEE (Aib, 4Pal, Me4Pal, Orn, alpha-methyl-Leu, lipidated Lys, amide; synthetic construct; SITE 2: note = 2-Aminoisobutyric Acid; SITE 10: note = 3-(4-Pyridyl)-L-alanine; SITE 12: note = L-ornithine; SITE 13: note = alpha-methyl-leucine; SITE 17: note = Lysine is chemically modified through conjugation of the epsilon-amino group of the Lysine side chain with (2-[2-(2-) [Example 955] | – | – | – | 366 | 1380 | 42.3 | – | – | –
YXQGTFTSDXSQXLDKKAQXAFIEYLIEXGPSSGAPPPSGSEE (acylated Lys γGlu-(e)2-C18 diacid; non-natural residues; C-terminal amide; synthetic construct; SITE 2: note = 2-Aminoisobutyric Acid; SITE 10: note = 3-(4-Pyridyl)-L-alanine; SITE 13: note = alpha-methyl-leucine; SITE 17: note = Lysine is chemically modified through conjugation of the epsilon-amino group of the Lysine side chain with (gamma-Glu)-(D-Glutamic acid)2-CO-(CH2)) [Example 930] | 1700 | 824 | 19.9 | – | – | – | – | – | –
YXQGTFTSDXSQXLDKKAQXAFIEXLIEGGPSSGAPPPSGSEE (non-natural residues; Lys acylated C18 diacid; C-terminal amide; synthetic construct; SITE 2: note = 2-Aminoisobutyric Acid; SITE 10: note = 3-(4-Pyridyl)-L-alanine; SITE 13: note = alpha-methyl-leucine; SITE 17: note = Lysine is chemically modified through conjugation of the epsilon-amino group of the Lysine side chain with (gamma-Glu)2-CO-(CH2)16-CO2H; SITE 20:) [Example 957] | – | – | – | 947 | 747 | 25 | – | – | –
YXQGTFTSDXSQXLDKKAQXAFIEYLIEXGPSSGAPPPSGSEE (non-natural residues, γGlu-C18 diacid acyl on K, C-terminal amide; synthetic construct; SITE 2: note = 2-Aminoisobutyric Acid; SITE 10: note = 3-(4-Pyridyl)-L-alanine; SITE 13: note = alpha-methyl-leucine; SITE 17: note = Lysine is chemically modified through conjugation of the epsilon-amino group of the Lysine side chain with (D-Glutamic acid)2-(gamma-Glu)-CO-(CH2)) [Example 929] | 2690 | 593 | 22.6 | – | – | – | – | – | –
YXQGTFTSDXSRXLDKKAQXAFIEXLLEGGPSSGAPPPSGS (non-natural residues; lipidated Lys; C-terminal amide; synthetic construct; SITE 2: note = 2-Aminoisobutyric Acid; SITE 10: note = 3-(4-Pyridyl)-L-alanine; SITE 13: note = alpha-methyl-leucine; SITE 17: note = Lysine is chemically modified through conjugation of the epsilon-amino group of the Lysine side chain with (2-[2-(2-Amino-ethoxy)-ethoxy]-acetyl)) [Example 909] | 1740 | 243 | 20.2 | – | – | – | 6.82 | 1.72 | 0.121
YXQGTFTSDXSQXLDXKAQXAFIEXLLEGGPSSGAPPPSGS (non-natural residues; Lys acylated C18 diacid; C-terminal amide; synthetic construct; SITE 2: note = 2-Aminoisobutyric Acid; SITE 10: note = 3-(4-Pyridyl)-L-alanine; SITE 13: note = alpha-methyl-leucine; SITE 16: note = L-ornithine; SITE 17: note = Lysine is chemically modified through conjugation of the epsilon-amino group of the Lysine side chain with (2-[2-(2-) [Example 932] | 513 | 249 | 25 | – | – | – | – | – | –
YXQGTFTSDXSQXLDKKAQXAFIEYLIEXGPSSGAPPPSGS (non-natural residues; C18 diacid-e-γGlu-e on Lys; C-terminal amide; synthetic construct; SITE 2: note = 2-Aminoisobutyric Acid; SITE 10: note = 3-(4-Pyridyl)-L-alanine; SITE 13: note = alpha-methyl-leucine; SITE 17: note = Lysine is chemically modified through conjugation of the epsilon-amino group of the Lysine side chain with D-Glutamic acid-(gamma-Glu)-D-Glutamic) [Example 923] | 1840 | 870 | 18.5 | – | – | – | – | – | –
YXQGTFTSDXSRXLDKKAQXAFIEXLIEGGPSSGAPPPSGS (non-natural residues, AEEA-γGlu-C18 diacid lysine acylation, C-terminal amide; synthetic construct; SITE 2: note = 2-Aminoisobutyric Acid; SITE 10: note = 3-(4-Pyridyl)-L-alanine; SITE 13: note = alpha-methyl-leucine; SITE 17: note = Lysine is chemically modified through conjugation of the epsilon-amino group of the Lysine side chain with (2-[2-(2-Amino-ethoxy)-ethoxy]-acetyl)) [Example 950] | – | – | – | 327 | 328 | 18.1 | – | – | –
YXQGTFTSDXSKXLDKKAQXAFIEXLIEXGPSSGAPPPSGS (Aib, 4Pal, αMeL, Me4Pal; lysine acylated C18 diacid; amide; synthetic construct; SITE 2: note = 2-Aminoisobutyric Acid; SITE 10: note = 3-(4-Pyridyl)-L-alanine; SITE 13: note = alpha-methyl-leucine; SITE 17: note = Lysine is chemically modified through conjugation of the epsilon-amino group of the Lysine side chain with (2-[2-(2-Amino-ethoxy)-ethoxy]-acetyl)) [Example 916] | 158 | 166 | 4.78 | – | – | – | – | – | –
YXQGTFTSDXSKXLDKKAQXAFIEYLIEXGPSSGAPPPSGS (non-natural residues, acylated Lys, C-terminal amide; synthetic construct; SITE 2: note = 2-Aminoisobutyric Acid; SITE 10: note = 3-(4-Pyridyl)-L-alanine; SITE 13: note = alpha-methyl-leucine; SITE 17: note = Lysine is chemically modified through conjugation of the epsilon-amino group of the Lysine side chain with (2-[2-(2-Amino-ethoxy)-ethoxy]-acetyl)) [Example 915] | 174 | 226 | 15.3 | – | – | – | – | – | –
YXQGTFTSDXSXXLDKKAQXAFIEXLIEGGPSSGAPPPSGS (Aib, 4Pal, Orn, Me4Pal; acylated lysine; amide; synthetic construct; SITE 2: note = 2-Aminoisobutyric Acid; SITE 10: note = 3-(4-Pyridyl)-L-alanine; SITE 12: note = L-ornithine; SITE 13: note = alpha-methyl-leucine; SITE 17: note = Lysine is chemically modified through conjugation of the epsilon-amino group of the Lysine side chain with (2-[2-(2-) [Example 949] | – | – | – | 317 | 721 | 26 | – | – | –
YXQGTFTSDXSRXLDKKAQXAFIEXLIEGGPSSGAPPPSGS (Aib, 4Pal, αMeL, Me4Pal; lipidated Lys; C-terminal amide; synthetic construct; SITE 2: note = 2-Aminoisobutyric Acid; SITE 10: note = 3-(4-Pyridyl)-L-alanine; SITE 13: note = alpha-methyl-leucine; SITE 17: note = Lysine is chemically modified through conjugation of the epsilon-amino group of the Lysine side chain with (gamma-Glu)2-CO-(CH2)16-CO2H; SITE 20:) [Example 953] | – | – | – | 275 | 347 | 10.9 | – | – | –
YXQGTFTSDXSQXLDXKAQXAFIEXLLEGGPSSGAPPPSGS (acylated Lys AEEA-γGlu-C18 diacid; non-natural residues; C-terminal amide; synthetic construct; SITE 2: note = 2-Aminoisobutyric Acid; SITE 10: note = 3-(4-Pyridyl)-L-alanine; SITE 13: note = alpha-methyl-leucine; SITE 16: note = L-ornithine; SITE 17: note = Lysine is chemically modified through conjugation of the epsilon-amino group of the Lysine side chain with (2-[2-(2-) [Example 911] | 2390 | 255 | 26.6 | – | – | – | – | – | –
YXQGTFTSDXSQXLDKKAQXQFIEXLIEGGPSSGAPPPSGS (non-natural residues, acylated Lys ((γGlu)2-C18 diacid), C-terminal amide; synthetic construct; SITE 2: note = 2-Aminoisobutyric Acid; SITE 10: note = 3-(4-Pyridyl)-L-alanine; SITE 13: note = alpha-methyl-leucine; SITE 17: note = Lysine is chemically modified through conjugation of the epsilon-amino group of the Lysine side chain with (gamma-Glu)2-CO-(CH2)16-CO2H; SITE 20:) [Example 934] | 1380 | 175 | 28.1 | – | – | – | – | – | –
